According to patent US20120316324A1 (UCB, published 2012):

Key:
hIL13 [1] = biological target: T1, hIL13 (human, UniProt P35225 35-146, limits assumed); test: SPR Biacore 3000, construct captured, 20 nM hIL13 injected
T1 construct: also called human IL-13

human serum albumin = biological target: T2, human serum albumin (human, UniProt P02768 25-609); test: SPR (Biacore 3000), construct captured by anti human CH1 antibody on CM5 chip, HSA as analyte
T2 construct: also called HSA; HumanSA

hIL13 [2] = biological target: T1, hIL13; test: SPR (Biacore 3000), construct captured by anti human CH1 antibody on CM5 chip, hIL13 as analyte (single concentration 20 nM)

- Kd (hIL13 [1]): ~0.1 nM
- Kd (human serum albumin): 1.22 nM
- koff (human serum albumin): 0.000311 s⁻¹
- kon (human serum albumin): 255000 M⁻¹ s⁻¹
- Kd (hIL13 [2]): 0.126 nM
- koff (hIL13 [2]): 0.000177 s⁻¹
- kon (hIL13 [2]): 1.4e+06 M⁻¹ s⁻¹
B1: 645Fv-652Fab (L-3xG4S, H-3xG4S) (bispecific antibody, V domains shown)
VH: EVQLLESGGGLVQPGGSLRLSCAVSGIDLSNYAINWVRQAPGKGLEWIGIIWASGTTFYATWAKGRFTISRDSTTVYLQMNSLRAEDTAVYYCARTVPGYSTAPYFDLWGQGTLVTVSS
VL: DIVMTQSPSSVSASVGDRVTITCQSSPSVWSNFLSWYQQKPGKAPKLLIYEASKLTSGVPSRFKGSGSGTDFTLTISSLQPEDFATYYCGGGYSSISDTTFGGGTKVEIK
